# Measured values from US7122342 (ZymoGenetics, dated 2006).
# T1: PAR4 mutant R68A, expressed on COS cells
# T1 sequence: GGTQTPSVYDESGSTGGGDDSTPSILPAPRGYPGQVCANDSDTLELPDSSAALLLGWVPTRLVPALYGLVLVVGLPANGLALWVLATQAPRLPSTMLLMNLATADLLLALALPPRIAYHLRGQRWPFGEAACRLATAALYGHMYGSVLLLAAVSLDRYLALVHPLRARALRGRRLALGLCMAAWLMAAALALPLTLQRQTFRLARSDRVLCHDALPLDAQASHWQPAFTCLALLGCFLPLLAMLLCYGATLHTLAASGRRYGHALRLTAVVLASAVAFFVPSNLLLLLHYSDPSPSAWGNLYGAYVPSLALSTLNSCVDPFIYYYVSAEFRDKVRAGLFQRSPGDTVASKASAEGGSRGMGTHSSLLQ
# T2: protease-activated receptor 4 (PAR4), wild type, expressed on transiently transfected COS-7 cells
# T2 sequence: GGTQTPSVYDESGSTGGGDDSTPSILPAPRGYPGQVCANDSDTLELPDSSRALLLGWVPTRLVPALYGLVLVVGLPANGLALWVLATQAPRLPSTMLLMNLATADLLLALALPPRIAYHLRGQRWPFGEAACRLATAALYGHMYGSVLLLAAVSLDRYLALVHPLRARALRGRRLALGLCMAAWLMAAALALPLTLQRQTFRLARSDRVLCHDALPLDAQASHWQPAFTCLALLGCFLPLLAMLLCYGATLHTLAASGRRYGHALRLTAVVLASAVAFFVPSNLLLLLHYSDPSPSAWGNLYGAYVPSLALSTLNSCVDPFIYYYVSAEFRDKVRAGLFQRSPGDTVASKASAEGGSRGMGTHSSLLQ
# T3: protease-activated receptor 4 (PAR4), wild type, expressed on transiently transfected COS-7 cells (human, UniProt Q96RI0 18-385)
# T3 sequence: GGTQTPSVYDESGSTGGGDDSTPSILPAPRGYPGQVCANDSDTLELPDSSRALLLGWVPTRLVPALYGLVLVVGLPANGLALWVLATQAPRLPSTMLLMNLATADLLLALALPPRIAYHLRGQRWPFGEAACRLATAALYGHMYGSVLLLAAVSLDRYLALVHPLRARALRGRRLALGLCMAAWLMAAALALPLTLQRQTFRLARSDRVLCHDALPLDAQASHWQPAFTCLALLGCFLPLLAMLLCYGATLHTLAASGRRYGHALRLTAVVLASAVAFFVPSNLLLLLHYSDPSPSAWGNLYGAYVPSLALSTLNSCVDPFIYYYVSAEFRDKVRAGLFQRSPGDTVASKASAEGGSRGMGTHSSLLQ
# Test system: T1, PAR4 mutant R68A, expressed on COS cells
# Assay: not given
# factor IXa, sequence (P00740 47-191): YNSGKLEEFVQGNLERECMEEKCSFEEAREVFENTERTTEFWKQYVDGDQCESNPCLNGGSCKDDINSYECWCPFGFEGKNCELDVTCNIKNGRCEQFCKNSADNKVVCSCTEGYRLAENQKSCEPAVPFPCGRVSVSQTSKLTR
# factor IXa, sequence (P00740 227-461): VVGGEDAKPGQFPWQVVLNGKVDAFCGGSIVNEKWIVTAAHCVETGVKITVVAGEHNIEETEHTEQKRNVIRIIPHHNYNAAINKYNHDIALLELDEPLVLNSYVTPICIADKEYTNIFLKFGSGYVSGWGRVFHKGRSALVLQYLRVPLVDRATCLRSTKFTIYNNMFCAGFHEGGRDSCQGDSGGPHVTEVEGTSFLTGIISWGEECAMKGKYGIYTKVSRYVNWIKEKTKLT
# plasmin, sequence (P00747 20-580): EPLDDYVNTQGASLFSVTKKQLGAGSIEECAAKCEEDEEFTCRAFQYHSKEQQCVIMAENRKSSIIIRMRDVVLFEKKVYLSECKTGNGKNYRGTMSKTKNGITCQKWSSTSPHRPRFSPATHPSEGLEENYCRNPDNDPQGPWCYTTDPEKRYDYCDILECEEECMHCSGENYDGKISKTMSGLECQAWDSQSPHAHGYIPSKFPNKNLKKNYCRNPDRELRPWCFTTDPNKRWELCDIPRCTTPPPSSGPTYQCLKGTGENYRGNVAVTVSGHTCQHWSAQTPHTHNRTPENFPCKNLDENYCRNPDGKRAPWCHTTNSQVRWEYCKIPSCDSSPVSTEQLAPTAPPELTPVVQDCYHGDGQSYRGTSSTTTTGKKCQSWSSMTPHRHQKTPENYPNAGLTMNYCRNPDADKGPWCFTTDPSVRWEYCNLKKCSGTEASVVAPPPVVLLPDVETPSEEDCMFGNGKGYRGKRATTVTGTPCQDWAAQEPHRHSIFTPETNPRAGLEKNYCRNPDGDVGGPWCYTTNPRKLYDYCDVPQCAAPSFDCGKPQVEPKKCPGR
# plasmin, sequence (P00747 581-810): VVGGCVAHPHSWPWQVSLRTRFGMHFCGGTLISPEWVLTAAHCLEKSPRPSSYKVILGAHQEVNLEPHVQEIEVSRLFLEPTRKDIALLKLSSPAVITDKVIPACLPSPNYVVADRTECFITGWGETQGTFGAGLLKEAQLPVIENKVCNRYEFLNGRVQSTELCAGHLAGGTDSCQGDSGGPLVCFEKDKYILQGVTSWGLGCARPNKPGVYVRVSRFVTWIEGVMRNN
row,Molecule,"phosphatidylinositol 4,5 diphosphate hydrolysis assay"
1,thrombin (alpha-thrombin),(R68A) had no effect on PAR4 activation by thrombin or trypsin
2,trypsin,(R68A) had no effect on PAR4 activation by thrombin or trypsin

# Test system: T2, protease-activated receptor 4 (PAR4), wild type, expressed on transiently transfected COS-7 cells
# Assay: not given
row,Molecule,phosphoinositide hydrolysis (activation of PAR4)
1,chymotrypsin,Chymotrypsin and elastase failed to activate PAR4
2,factor Xa,"Small effects, however, were observed with factor Xa at high concentrations (100 nM)"
3,plasmin,had little or no activity against PAR4
4,factor VIIa,had little or no activity against PAR4
5,elastase,Chymotrypsin and elastase failed to activate PAR4
6,factor IXa,had little or no activity against PAR4
7,urokinase,had little or no activity against PAR4
8,factor XIa,had little or no activity against PAR4

# Target: protease-activated receptor 4 (PAR4), wild type, expressed on transiently transfected COS-7 cells (human) (UniProt Q96RI0)
# Assay: cell-based or functional assay
row,Molecule,"phosphoinositide hydrolysis, half-maximal concentration (EC50)"
1,thrombin (alpha-thrombin) (enzyme),5 nM
2,trypsin (enzyme),5 nM

# Target: T3, protease-activated receptor 4 (PAR4), …
# Assay: cell-based or functional assay
row,Molecule,EC50 of activation of PAR4 on COS cells
1,"GYPGQV [PAR4 activating peptide, hexapeptide GYPGQV]",~100000 nM
